Assay [1] relates to SNX27_PDZ. Description: nHU-MS, SNX27_PDZ bait, total Jurkat extracts, series 1. The settings on record: for pKapp_HU_not_filtered: SNX27 bait, not filtered for significance; for FC_HU: SNX27 vs MBP control. It counts as binding, human. As to the method: The empty His6-AviTag-MBP-TEV vector was used to produce biotinylated MBP for control experiments. Proteins were coexpressed with BirA biotin ligase (PET21a-BirA, Addgene, no. 20857) in Escherichia coli BL21(DE3) cells. At isopropyl-β-D-thiogalactopyranoside (IPTG) induction (1 mM IPTG at 18°C overnight), 50 μM biotin was added to the media. Harvested cells were lysed in a buffer containing 50 mM tris (pH 7.5), 150 to 300 mM NaCl, 50 μM biotin, 2 mM β-mercaptoethanol, cOmplete EDTA-free protease inhibitor cocktail (Roche, Basel, Switzerland), 1% Triton X-100, and trace amount of deoxyribonuclease, ribonuclease, and lysozyme. Lysates were frozen at −20°C before further purification steps. Lysates were sonicated and centrifuged for clarification. Expressed proteins were captured on in-house prepacked Ni-IDA (Protino Ni-IDA Resin, Macherey-Nagel, Duren, Germany) columns and were washed with at least 10 column volumes of cold wash buffer [50 mM tris (pH 7.5), 150 mM NaCl, and 2 mM β-mercaptoethanol] before elution with 250 mM imidazole. The Ni elution was collected directly on a preequilibrated amylose column (amylose high flow resin, New England Biolabs, Ipswich, MA). Amylose column was washed with 5 column volumes of cold wash buffer before fractionated elution in a buffer containing 25 mM Hepes (pH 7.5), 150 mM NaCl, 1 mM TCEP, 10% glycerol, 5 mM maltose, and cOmplete EDTA-free protease inhibitor cocktail. The concentration of proteins was determined by their ultraviolet absorption at 280 nm before aliquots were snap-frozen in liquid nitrogen and stored at −80°C.
For saturating streptavidin resin with biotinylated peptides or biotin, 50 μl of streptavidin resin was mixed with biotin or peptide at 40 to 60 μM concentration in 6 to 6.5 resin volume for 60 min. To saturate streptavidin resin with biotinylated proteins, 50 μl of streptavidin resin (Streptavidin Sepharose High Performance, Cytiva) was mixed with biotinylated MBP or MBP-PDZ at 40 to 50 μM concentration in 20× resin volume for 60 min. After saturation, resins were washed a single time [10 resin volume, holdup buffer: 50 mM tris (pH 7.5), 300 mM NaCl, and 1 mM TCEP, 0.22-μm filtered] and were depleted with biotin (10 resin volume, 10 min, holdup buffer supplemented with 100 μM biotin). Last, resins were washed two times (10 resin volume, holdup buffer).
For single-point nHU experiments carried out at ~10 μM bait concentration, 50 μl of saturated streptavidin resin was mixed with 200 μl of cell lysate (2 mg/ml). Titration experiments were carried out by mixing control and bait-saturated resin and keeping the total resin volume constant; e.g., ~5 μM bait concentration can be achieved by mixing 25 μl of bait-saturated streptavidin resin with 25 μl of control resin and 200 μl of cell lysate (2 mg/ml). Control and bait-saturated resins were prepared in larger amounts, and a serial dilution was prepared with these presaturated resins to achieve different resin ratios.
Unless specified elswhere, the nHU mixture was incubated at 4°C for 2 hours. After the incubation ended, the resin was separated from the supernatant by a brief centrifugation (15 s, 2000 g). Then, half of the supernatant was removed by pipetting without any delay to avoid any resin contamination; e.g., 100 μl of supernatant is collected if 200 μl of cell lysate was used as analyte. Alternatively, the supernatant can be centrifuged an additional time to clarify it further, removing any possible resin contamination. In principle, the separation of the supernatant should be as fast as possible since any delay can perturb the equilibrium. […] Alternatively, the resin can be separated from the supernatant using filter plates (e.g., various products of Millipore, Burlington, MA) or spin columns (e.g., Pierce spin cups—cellulose acetate filter from Thermo Fisher Scientific, Waltham, MA) to achieve faster separation. […]

Assay [2] concerns SNX27_PDZ. Description: AP-MS control pull-down on leftover resin, SNX27_PDZ bait, total Jurkat extracts. It counts as binding, human. The settings on record: for FC_AP: SNX27 vs MBP. The procedure: Leftover beads from nHU-MS experiments were washed three times immediately after the separation of the supernatant [10 resin volume in buffer containing 50 mM tris (pH 8.5), 150 mM NaCl, 1% Triton X-100, 10× cOmplete EDTA-free protease inhibitor cocktail, 2 mM EDTA, and 1 mM TCEP]. Then, the beads were washed two times [10 resin volume buffer containing 50 mM tris (pH 8.5), 150 mM NaCl, and 1 mM TCEP]. Last, captured protein was eluted from the resin in two steps, and the eluted fractions were pooled. For each elution, the beads were incubated for 30 min with three resin volume buffer containing 20 mM tris (pH 8.5), 100 mM NaCl, 500 μM TCEP, and 8 M urea. Between each step, the beads were separated by mild centrifugation, and the supernatant was removed by gentle pipetting.
The nHU samples were precipitated with trichloroacetic acid (TCA) 20% overnight at 4°C and centrifuged at 14,000 rpm for 10 min at 4°C. The protein pellets were washed twice with 1 ml of cold acetone and air-dried. The protein extracts were solubilized in 8 M urea, reduced with 5 mM TCEP for 30 min, and alkylated with 10 mM iodoacetamide for 30 min in the dark. Double digestion was performed at 37°C with 500 ng of endoproteinase Lys-C (Wako, Richmond, USA) for 4 hours, followed by fourfold dilution and an overnight digestion with 500 ng of trypsin (Promega, Charbonnieres les Bains, France). Peptide mixtures were then desalted on a C18 spin-column and dried on a speed vacuum.
Samples were analyzed using an Ultimate 3000 nano-RSLC coupled in line via a nano-electrospray ionization source, with an LTQ-Orbitrap ELITE mass spectrometer (Thermo Fisher Scientific, San Jose, CA) or with the Orbitrap Exploris 480 mass spectrometer (Thermo Fisher Scientific, Bremen, Germany) equipped with a high field asymmetric ion mobility spectrometry (FAIMS) module. Peptide mixtures were injected in 0.1% trifluoroacetic acid on a C18 Acclaim PepMap100 trap column [75 μm inner diameter (ID) × 2 cm, 3 μm, 100 Å, Thermo Fisher Scientific] for 3 min at 5 μl/min with 2% acetonitrile (ACN) and 0.1% formic acid (FA) in H2O and then separated on a C18 Acclaim PepMap100 nano-column (75 μm ID × 50 cm, 2.6 μm, 150 Å, Thermo Fisher Scientific) at 300 nl/min and 40°C with a 90-min linear gradient from 5 to 30% buffer B (A: 0.1% FA in H2O/B: 80% ACN, 0.1% FA in H2O) and regeneration at 5% B. Spray voltage was set to 2.1 kV and heated capillary temperature was set to 280°C.
For the Orbitrap Elite, the mass spectrometer was operated in positive ionization mode in data-dependent mode with survey scans from mass/charge ratio (m/z) 350 to 1500 acquired in the Orbitrap at a resolution of 120,000 at m/z 400. The 20 most intense peaks from survey scans were selected for further fragmentation in the linear ion trap with an isolation window of 2.0 Da and were fragmented by collision-induced dissociation (CID) with a normalized collision energy of 35% (TOP 20 CID method). Unassigned and single-charged states were excluded from fragmentation. The ion target value for the survey scans (in the Orbitrap) and the MS2 mode (in the linear ion trap) were set to 1E6 and 5E3, respectively, and the maximum injection time was set to 100 ms for both scan modes. Dynamic exclusion was set to 20 s after one repeat count with mass width at ±10 parts per million (ppm).
Proteins were identified by database search using SequestHT (Thermo Fisher Scientific) with Proteome Discoverer 2.4 software (PD2.4, Thermo Fisher Scientific) on the human FASTA database downloaded from UniProt (reviewed, release 2021_06_03, 20380 entries, https://uniprot.org/, complemented with sequences of likely contaminants, such as MBP, streptavidin, or trypsin). Precursor and fragment mass tolerances were set at 7 ppm and 0.6 Da, respectively, and up to two missed cleavages were allowed. […]

[3] abbreviates: nHU-MS, SNX27/MBP, total Jurkat extract, sheet "SNX27&Jurkat".
[4] abbreviates: nHU-MS, SNX27 bait vs MBP control, total Jurkat extract, sheet "SNX27&Jurkat".
Setting [5] is: nHU-MS, total Jurkat extract, sheet "SNX27&Jurkat".
The mark [6] stands for this setting: AP-MS control pull-down, SNX27/MBP, total Jurkat extract.
The mark [7] stands for this setting: AP-MS control pull-down, total Jurkat extract.
The mark [8] stands for this setting: Jurkat, series 1, leftover resin, n = 6.

B1: RAE1 (protein, UniProt P78406 1-368, looked up)
mRNA export factor RAE1: MSLFGTTSGFGTSGTSMFGSATTDNHNPMKDIEVTSSPDDSIGCLSFSPPTLPGNFLIAGSWANDVRCWEVQDSGQTIPKAQQMHTGPVLDVCWSDDGSKVFTASCDKTAKMWDLSSNQAIQIAQHDAPVKTIHWIKAPNYSCVMTGSWDKTLKFWDTRSSNPMMVLQLPERCYCADVIYPMAVVATAERGLIVYQLENQPSEFRRIESPLKHQHRCVAIFKDKQNKPTGFALGSIEGRVAIHYINPPNPAKDNFTFKCHRSNGTNTSAPQDIYAVNGIAFHPVHGTLATVGSDGRFSFWDKDARTKLKTSEQLDQPISACCFNHNGNIFAYASSYDWSKGHEFYNPQKKNYIFLRNAAEELKPRNKK
In turn, B1 showed a Ratio_HU with SNX27_PDZ [1] (setting [3]) of 0.6404. The BI_HU in the assay on SNX27_PDZ [1] (setting [4]) is reported as 0.3596. The same molecule returned a pKapp_HU_not_filtered at SNX27_PDZ [1] (nHU-MS, total Jurkat extract) of 4.751. Moreover, the FC_HU in the assay on SNX27_PDZ [1] (setting [5]) is given as -0.643. In addition, in the assay with SNX27_PDZ [2] (setting [6]), the Ratio_AP turned out to be 3.111. Further, the FC_AP in the assay on SNX27_PDZ [2] (setting [7]) came out at 1.637.

B2: BYSL (protein, UniProt Q13895 1-437, looked up)
Bystin: MPKFKAARGVGGQEKHAPLADQILAGNAVRAGVREKRRGRGTGEAEEEYVGPRLSRRILQQARQQQEELEAEHGTGDKPAAPRERTTRLGPRMPQDGSDDEDEEWPTLEKAATMTAAGHHAEVVVDPEDERAIEMFMNKNPPARRTLADIIMEKLTEKQTEVETVMSEVSGFPMPQLDPRVLEVYRGVREVLSKYRSGKLPKAFKIIPALSNWEQILYVTEPEAWTAAAMYQATRIFASNLKERMAQRFYNLVLLPRVRDDVAEYKRLNFHLYMALKKALFKPGAWFKGILIPLCESGTCTLREAIIVGSIITKCSIPVLHSSAAMLKIAEMEYSGANSIFLRLLLDKKYALPYRVLDALVFHFLGFRTEKRELPVLWHQCLLTLVQRYKADLATDQKEALLELLRLQPHPQLSPEIRRELQSAVPRDVEDVPITVE
With B2, the Ratio_HU with SNX27_PDZ [1] (setting [3]) came out at 0.6423. Also, the BI_HU with SNX27_PDZ [1] (setting [4]) is given as 0.3577. On SNX27_PDZ [1] (nHU-MS, total Jurkat extract), the pKapp_HU_not_filtered was 4.747. The molecule further had an FC_HU in the assay on SNX27_PDZ [1] (setting [5]) of -0.6386. In addition, the Ratio_AP in the assay on SNX27_PDZ [2] (setting [6]) came out at 9.097. In the assay with SNX27_PDZ [2] (setting [7]), the FC_AP is 3.185. Also, the BINDER_AP entry in the assay with SNX27_PDZ [2] (AP-MS control pull-down, total Jurkat extract, BINDS / DOES NOT BIND) was “DOES NOT BIND”.

B3: DARS1: Aspartate--tRNA ligase, cytoplasmic (protein, UniProt P14868 1-501, looked up)
Aspartate--tRNA ligase, …: MPSASASRKSQEKPREIMDAAEDYAKERYGISSMIQSQEKPDRVLVRVRDLTIQKADEVVWVRARVHTSRAKGKQCFLVLRQQQFNVQALVAVGDHASKQMVKFAANINKESIVDVEGVVRKVNQKIGSCTQQDVELHVQKIYVISLAEPRLPLQLDDAVRPEAEGEEEGRATVNQDTRLDNRVIDLRTSTSQAVFRLQSGICHLFRETLINKGFVEIQTPKIISAASEGGANVFTVSYFKNNAYLAQSPQLYKQMCICADFEKVFSIGPVFRAEDSNTHRHLTEFVGLDIEMAFNYHYHEVMEEIADTMVQIFKGLQERFQTEIQTVNKQFPCEPFKFLEPTLRLEYCEALAMLREAGVEMGDEDDLSTPNEKLLGHLVKEKYDTDFYILDKYPLAVRPFYTMPDPRNPKQSNSYDMFMRGEEILSGAQRIHDPQLLTERALHHGIDLEKIKAYIDSFRFGAPPHAGGGIGLERVTMLFLGLHNVRQTSMFPRDPKRLTP
With B3, in the assay with SNX27_PDZ [1] (Jurkat, series 1, n = 6), the BI_HU is on record as 0.3534, the “FC_HU (log2 fold change)” value is listed as -0.629 and the Ratio_HU is reported as 0.6466. For the same molecule, at SNX27_PDZ [1] (apparent, Eq. 2, Jurkat, series 1, significant binders (1 σ, P < 0.05)), the pKapp_significant_binders_HU was 4.739. Also, in the assay on SNX27_PDZ [2] (setting [8]), the “FC_AP (log2 fold change)” value was determined as 3.29 and the Ratio_AP was determined as 9.779.

(Values after PMC9770967, “Native holdup (nHU) to measure binding affinities from cell extracts” (Science Advances, 2022).)
